Reference: patent publication US20230037682A1

Molecular target: CD3 peptide
Assay: SPR (Biacore); 25 °C

Substance: J6MO_SP34 (sp34)
- Kd: 13.9 nM
